What was measured:
[1] = system: toxic myocarditis caused by Adriamycin in rat; assay: Heart size (heart weight/body weight, wall thickness), Adriamycin rat model; type: in vivo, SD rat; conditions: Adriamycin model
Method: Heart was extirpated after thoracotomy (auricle should be reserved), the heart weight was measured after dried with absorbent paper, ratio of heart weight/body weight calculated; outer diameter of the heart was measured at ½ site of the vertically standing heart; medium part of the left ventricle was crosswise cut open, maximal thickness of free wall of the left ventricle measured; the heart was fixed with 10% formaldehyde, paraffin embedded and HE stained, observation of the myocardial structure carried out under optic microscope, give out pathologic score.

[2] = system: congestive heart failure caused by inferior vena cava constriction in dog; assay: Echocardiography (EF, FS, CO), inferior vena cava constriction (TIVCC) dog; type: in vivo, crossbred dog
Method: […] dosage level of 1, 3 and 10 μg/kg respectively of rhNRG-1 β was diluted with preparation buffer solution (vehicle) to needed concentration, intravenous injection once everyday for consecutive 5 days.
3% pentobarbital sodium (30 mg/kg) was injected into the peripheral vein to anesthetize the dog, then trachea intubated. […] Bred for 1 week, echocardiography performed according to the amount of ascites, when EF reduced by about 20% or dilatation of the left heart by about 20%, stable low cardiac output congestive heart failure animal model was established. Then intravenous injection of the drug was carried out for consecutive 5 days.
• Heart function index determination was carried out under anesthesia of the dog prior to the operation, prior to and 5-day after the drug administration. Major index included: • EF (Ejection Fraction): heart ejection fraction, i.e., ratio of difference between end diastolic volume of the ventricle (EDV) and end systolic volume of ventricle (ESV) and end diastolic volume of ventricle, being general index used for reflecting pumping function of ventricle; especially reflecting the systolic function; • FS: ventricular short axis shortening rate, being index reflecting contraction function of ventricle, • CO: cardiac output, i.e. blood volume ejected by the heart per minute. 6.3.3.2 Hemodynamic Index Determination

[3] = Acute toxicity experiment, intravenous injection; type: in vivo
[4] = system: phosphorylation of ErbB2 protein, MCF-7 cells; assay: In vitro determination of NRG-1 activity (ELISA test for kinase receptor activation); type: cell-based, human
Source text: Quantity of standard product that can induce 50% maximal reaction is defined as an activity unit (1U). Accordingly, product from different pharmaceuticals and of different batch number can be quantitated with uniform criteria.
HER2/neu gene encodes a trans-membrane protein p185, which is a tyrosine protein kinase. Binding of Neuregulin-1 with ErbB3 or ErbB4 induces heterodimer ErbB3-ErbB2 and ErbB4-ErbB2 formation and activates HER2 encoded tyrosine protein kinase, mediating the transmission of functioning signal of Neuregulin-1. Based on the fact that binding of Neuregulin-1 with its receptors triggers phosphorylation of ErbB2 protein, we establish a rapid, sensitive and high flux method for in vitro quantitatively determining biological activity of Recombinant Neuregulin-1.
150 mM NaCl+50 mM Hepes+1% Triton-X 100+2 mM (sodium orthovanadate)+0.01% (thimerosol). […]
Wash the plate 5 times, dilute HRP enzyme linked mouse anti-phosphorylated tyrosine protein antibody with 1:500 lotion (determined by the product using guide and the using time), add 100 μl into each hole of the plate. […]
Colorimetric analysis on the ELISA reader, determine wave length of 450 nm, reference wave length of 655, record the results. […]

[5] = 1 μg/kg group, prior to drug administration
[6] = 1 μg/kg iv daily 5 days, after drug administration
[7] = 3 μg/kg group, prior to drug administration
[8] = 3 μg/kg iv daily 5 days, after drug administration
[9] = 10 μg/kg group, prior to drug administration
[10] = 10 μg/kg iv daily 5 days, after drug administration

B1: rhNRG-1 β: Recombinant human neuregulin fragment of 61 amino acid (SEQ ID NO:4), 3 disulfide bonds, expressed in E. coli (protein, listed as Homo sapiens)
chain: SHLVKCAEKEKTFCVNGGECFMVKDLSNPSRYLCKCPNEFTGDRCQNYVMASFYKAEELYQ
modifications: disulfide (positions not given here)
Question: Which results are given for B1?
Answer: Heart weight/body weight ([1]; 10 μg/kg iv qd × 10 d, (I)): 0.00301 ± 0.0002; Left ventricle wall thickness ([1]; 10 μg/kg iv qd × 10 d, (I)): 1.773 ± 0.115 mm; Heart weight/body weight ([1]; 10 μg/kg iv qd × 10 d, (II)): 0.00307 ± 0.000; Left ventricular wall thickness ([1]; 10 μg/kg iv qd × 10 d, (II)): 2.18 ± 0.21 mm; Heart weight/body weight ([1]; 20 μg/kg iv qd × 10 d, (I)): 0.0032 ± 0.0001; Left ventricle wall thickness ([1]; 20 μg/kg iv qd × 10 d, (I)): 1.789 ± 0.133 mm; Heart weight/body weight ([1]; 20 μg/kg iv qd × 10 d, (II)): 0.00303 ± 0.000; Left ventricular wall thickness ([1]; 20 μg/kg iv qd × 10 d, (II)): 2.15 ± 0.24 mm; Heart weight/body weight ([1]; 40 μg/kg iv qd × 10, (II)): 0.00297 ± 0.000; Left ventricular wall thickness ([1]; 40 μg/kg iv qd × 10, (II)): 2.06 ± 0.2 mm; Heart weight/body weight ([1]; 40 μg/kg iv qd × 10 d, (I)): 0.0031 ± 0.0002; Left ventricle wall thickness ([1]; 40 μg/kg iv qd × 10 d, (I)): 1.813 ± 0.12 mm; CO ([2]; 1 μg/kg group, preoperation): 4.2 ± 0.6 L/min; EF ([2]; 1 μg/kg group, preoperation): 82.8 ± 3.0%; FS ([2]; 1 μg/kg group, preoperation): 50.8 ± 4.0%; CO [2, 5]: 2.4 ± 0.5 L/min; EF [2, 5]: 57.7±10.9%; FS [2, 5]: 30.6±8.0%; CO ([2]; 1 μg/kg group, prior to drug administration, listed as rhNRG-1β): 2.4 ± 0.5 L/min; CO [2, 6]: 3.7 ± 0.8 L/min; EF [2, 6]: 70.4±8.4%; FS [2, 6]: 39.7±5.7%; CO ([2]; 1 μg/kg iv daily 5 days, after drug administration, listed as rhNRG-1β): 3.7 ± 0.8 L/min; CO ([2]; 3 μg/kg group, preoperation): 4.3 ± 0.8 L/min; EF ([2]; 3 μg/kg group, preoperation): 84.7 ± 2.8%; FS ([2]; 3 μg/kg group, preoperation): 51.7 ± 2.9%; CO [2, 7]: 2.1 ± 0.7 L/min; EF [2, 7]: 58.0 ± 8.3%; FS [2, 7]: 29.9 ± 6.4%; CO [2, 8]: 4.0 ± 0.9 L/min; EF [2, 8]: 74.7 ± 4.6 %; FS [2, 8]: 42.4 ± 4.4 %; CO ([2]; 10 μg/kg group, preoperation): 4.3 ± 0.6 L/min; EF ([2]; 10 μg/kg group, preoperation): 82.9 ± 2.6%; FS ([2]; 10 μg/kg group, preoperation): 50.5 ± 3.3%; CO [2, 9]: 1.9 ± 0.3 L/min; EF [2, 9]: 55.8 ± 10.0%; FS [2, 9]: 27.7 ± 5.6%; CO [2, 10]: 3.6 ± 0.7 L/min; EF [2, 10]: 74.7 ± 3.2 %; FS [2, 10]: 41.5 ± 3.1 %; effect on heart rate ([2]; 1, 3 and 10 μg/kg iv daily 5 days): less effect on heart rate; MTD of acute toxicity experiment [3]: 35 mg/kg; specific activity ([4]; batch number 200210024): 1.12×10^4 U/mg; specific activity ([4]; purified recombinant neuregulin from engineered strain): more than 5×10^3 EU/mg

Reference: patent US9555076B2, “Neuregulin based methods and compositions for treating cardiovascular diseases” (Zensun (Shanghai) Science & Technology, Co., Ltd., priority 2002, dated 2017)
